# Publication PMC4434323
# Legend:
# [1] = biological target: T1, dmd-6 (F13G11.1) (Caenorhabditis elegans) (UniProt O62159)
# T1 sequence: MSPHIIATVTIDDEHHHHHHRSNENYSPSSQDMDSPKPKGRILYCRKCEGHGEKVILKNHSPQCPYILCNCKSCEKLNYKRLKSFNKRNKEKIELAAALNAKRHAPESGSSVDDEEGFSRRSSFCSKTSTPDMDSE
# [2] = system: T2, C34D1.1 (C34D1.1) (Caenorhabditis elegans)
# T2 sequence: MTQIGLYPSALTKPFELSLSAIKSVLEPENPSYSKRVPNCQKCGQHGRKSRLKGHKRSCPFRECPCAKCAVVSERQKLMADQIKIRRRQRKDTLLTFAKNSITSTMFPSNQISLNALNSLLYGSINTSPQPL
# [3] = biological target: dmd-4 (C27C12.6) (Caenorhabditis elegans) (UniProt Q18248)
# Chain of dmd-4 (C27C12.6) (Caenorhabditis elegans) (Q18248 1-114): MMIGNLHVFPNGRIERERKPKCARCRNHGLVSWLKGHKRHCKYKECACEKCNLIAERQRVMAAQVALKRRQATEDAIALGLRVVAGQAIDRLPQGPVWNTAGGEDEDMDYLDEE
# [4] = biological target: T3, Y48G1C.6 (Y48G1C.6) (Caenorhabditis elegans) (UniProt Q9N3P2)
# T3 sequence: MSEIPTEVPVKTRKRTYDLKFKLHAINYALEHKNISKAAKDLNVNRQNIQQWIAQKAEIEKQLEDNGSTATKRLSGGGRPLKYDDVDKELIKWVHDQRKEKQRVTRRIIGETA
# [5] = biological target: dmd-5 (F10C1.5) (Caenorhabditis elegans) (UniProt Q19291)
# Chain of dmd-5 (F10C1.5) (Caenorhabditis elegans) (Q19291 1-125): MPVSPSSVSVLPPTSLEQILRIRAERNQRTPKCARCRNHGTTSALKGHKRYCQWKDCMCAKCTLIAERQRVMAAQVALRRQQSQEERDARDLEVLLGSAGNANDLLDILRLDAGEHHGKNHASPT
# [6] = biological target: T4, mab-3 (Y53C12B.5) (Caenorhabditis elegans) (UniProt O18214)
# T4 sequence: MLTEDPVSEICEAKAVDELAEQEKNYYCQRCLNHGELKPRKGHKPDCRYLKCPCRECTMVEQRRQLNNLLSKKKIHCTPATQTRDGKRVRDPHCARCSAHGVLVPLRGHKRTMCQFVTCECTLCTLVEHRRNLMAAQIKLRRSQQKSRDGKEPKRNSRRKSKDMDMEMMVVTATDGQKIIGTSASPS
# [7] = biological target: T5, T22H9.4 (T22H9.4) (Caenorhabditis elegans) (UniProt Q9TXN8)
# T5 sequence: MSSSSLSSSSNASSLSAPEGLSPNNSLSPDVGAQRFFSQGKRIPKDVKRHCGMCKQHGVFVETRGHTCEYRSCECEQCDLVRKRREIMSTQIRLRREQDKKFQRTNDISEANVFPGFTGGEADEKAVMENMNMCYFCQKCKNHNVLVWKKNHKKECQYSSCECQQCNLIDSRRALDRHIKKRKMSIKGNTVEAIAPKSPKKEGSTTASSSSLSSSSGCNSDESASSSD
sequence,measurement,setting,value
AAAAAGTT (double strand) [8-mer AAAAAGTT],binding signal (PBM E-score (-0.5 to 0.5)),[1],0.484
AAAAGTTA (double strand) [8-mer AAAAGTTA],binding signal (PBM E-score (-0.5 to 0.5)),[1],0.486
AAAATTTA (double strand) [8-mer AAAATTTA],binding signal (PBM E-score (-0.5 to 0.5)),[1],0.471
AAACATTT (double strand) [8-mer AAACATTT],binding signal (PBM E-score (-0.5 to 0.5)),[2],0.473
AAAGTATC (double strand) [8-mer AAAGTATC],binding signal (PBM E-score (-0.5 to 0.5)),[3],0.492
AAATATTT (double strand) [8-mer AAATATTT],binding signal (PBM E-score (-0.5 to 0.5)),[1],0.482
AAATGTTA (double strand) [8-mer AAATGTTA],binding signal (PBM E-score (-0.5 to 0.5)),[1],0.475
AAATTTAT (double strand) [8-mer AAATTTAT],binding signal (PBM E-score (-0.5 to 0.5)),[1],0.479
AAATTTTA (double strand) [8-mer AAATTTTA],binding signal (PBM E-score (-0.5 to 0.5)),[1],0.477
AACTTGCA (double strand) [8-mer AACTTGCA],binding signal (PBM E-score (-0.5 to 0.5)),[4],0.494
AAGATACA (double strand) [8-mer AAGATACA],binding signal (PBM E-score (-0.5 to 0.5)),[3],0.477
AATGTATC (double strand) [8-mer AATGTATC],binding signal (PBM E-score (-0.5 to 0.5)),[3],0.494
same,binding signal (PBM E-score (-0.5 to 0.5)),[5],0.485
AATTGTTA (double strand) [8-mer AATTGTTA],binding signal (PBM E-score (-0.5 to 0.5)),[5],0.478
ACAGTAAC (double strand) [8-mer ACAGTAAC],binding signal (PBM E-score (-0.5 to 0.5)),[5],0.482
ACAGTTGC (double strand) [8-mer ACAGTTGC],binding signal (PBM E-score (-0.5 to 0.5)),[5],0.489
ACGCAACA (double strand) [8-mer ACGCAACA],binding signal (PBM E-score (-0.5 to 0.5)),[6],0.484
ACTGCAAG (double strand) [8-mer ACTGCAAG],binding signal (PBM E-score (-0.5 to 0.5)),[4],0.493
ACTGTAAC (double strand) [8-mer ACTGTAAC],binding signal (PBM E-score (-0.5 to 0.5)),[5],0.49
ACTGTATC (double strand) [8-mer ACTGTATC],binding signal (PBM E-score (-0.5 to 0.5)),[5],0.484
ACTGTTGC (double strand) [8-mer ACTGTTGC],binding signal (PBM E-score (-0.5 to 0.5)),[5],0.488
ACTTGCAC (double strand) [8-mer ACTTGCAC],binding signal (PBM E-score (-0.5 to 0.5)),[4],0.495
ACTTGCAG (double strand) [8-mer ACTTGCAG],binding signal (PBM E-score (-0.5 to 0.5)),[4],0.494
ACTTGCAT (double strand) [8-mer ACTTGCAT],binding signal (PBM E-score (-0.5 to 0.5)),[4],0.493
AGATACAT (double strand) [8-mer AGATACAT],binding signal (PBM E-score (-0.5 to 0.5)),[3],0.492
AGTGCAAG (double strand) [8-mer AGTGCAAG],binding signal (PBM E-score (-0.5 to 0.5)),[4],0.493
AGTGTTTC (double strand) [8-mer AGTGTTTC],binding signal (PBM E-score (-0.5 to 0.5)),[2],0.47
ATAGTTTC (double strand) [8-mer ATAGTTTC],binding signal (PBM E-score (-0.5 to 0.5)),[2],0.47
ATCTTGCA (double strand) [8-mer ATCTTGCA],binding signal (PBM E-score (-0.5 to 0.5)),[4],0.495
ATGAAACA (double strand) [8-mer ATGAAACA],binding signal (PBM E-score (-0.5 to 0.5)),[2],0.486
ATGATACA (double strand) [8-mer ATGATACA],binding signal (PBM E-score (-0.5 to 0.5)),[3],0.485
ATGCAACA (double strand) [8-mer ATGCAACA],binding signal (PBM E-score (-0.5 to 0.5)),[6],0.482
ATGCAAGA (double strand) [8-mer ATGCAAGA],binding signal (PBM E-score (-0.5 to 0.5)),[4],0.495
ATGTATCA (double strand) [8-mer ATGTATCA],binding signal (PBM E-score (-0.5 to 0.5)),[3],0.493
same,binding signal (PBM E-score (-0.5 to 0.5)),[5],0.486
ATGTTACA (double strand) [8-mer ATGTTACA],binding signal (PBM E-score (-0.5 to 0.5)),[5],0.475
ATGTTGCC (double strand) [8-mer ATGTTGCC],binding signal (PBM E-score (-0.5 to 0.5)),[6],0.477
ATGTTGCG (double strand) [8-mer ATGTTGCG],binding signal (PBM E-score (-0.5 to 0.5)),[6],0.499
ATTCAACA (double strand) [8-mer ATTCAACA],binding signal (PBM E-score (-0.5 to 0.5)),[7],0.49
ATTGCAAC (double strand) [8-mer ATTGCAAC],binding signal (PBM E-score (-0.5 to 0.5)),[7],0.493
ATTGTAAC (double strand) [8-mer ATTGTAAC],binding signal (PBM E-score (-0.5 to 0.5)),[5],0.481
ATTGTATC (double strand) [8-mer ATTGTATC],binding signal (PBM E-score (-0.5 to 0.5)),[3],0.491
same,binding signal (PBM E-score (-0.5 to 0.5)),[5],0.486
ATTGTTAC (double strand) [8-mer ATTGTTAC],binding signal (PBM E-score (-0.5 to 0.5)),[5],0.476
ATTGTTGC (double strand) [8-mer ATTGTTGC],binding signal (PBM E-score (-0.5 to 0.5)),[6],0.486
ATTGTTTC (double strand) [8-mer ATTGTTTC],binding signal (PBM E-score (-0.5 to 0.5)),[2],0.487
ATTTCAAC (double strand) [8-mer ATTTCAAC],binding signal (PBM E-score (-0.5 to 0.5)),[7],0.497
ATTTTAAC (double strand) [8-mer ATTTTAAC],binding signal (PBM E-score (-0.5 to 0.5)),[7],0.491
CATGCAAG (double strand) [8-mer CATGCAAG],binding signal (PBM E-score (-0.5 to 0.5)),[4],0.496
CATGTATC (double strand) [8-mer CATGTATC],binding signal (PBM E-score (-0.5 to 0.5)),[3],0.483
CATGTTTC (double strand) [8-mer CATGTTTC],binding signal (PBM E-score (-0.5 to 0.5)),[2],0.469
CCGCAACA (double strand) [8-mer CCGCAACA],binding signal (PBM E-score (-0.5 to 0.5)),[6],0.482
CCTGCAAG (double strand) [8-mer CCTGCAAG],binding signal (PBM E-score (-0.5 to 0.5)),[4],0.493
CGTTGCAA (double strand) [8-mer CGTTGCAA],binding signal (PBM E-score (-0.5 to 0.5)),[7],0.488
CTGCAAGA (double strand) [8-mer CTGCAAGA],binding signal (PBM E-score (-0.5 to 0.5)),[4],0.494
CTTGCACC (double strand) [8-mer CTTGCACC],binding signal (PBM E-score (-0.5 to 0.5)),[4],0.494
GAAACATA (double strand) [8-mer GAAACATA],binding signal (PBM E-score (-0.5 to 0.5)),[2],0.488
GATACATA (double strand) [8-mer GATACATA],binding signal (PBM E-score (-0.5 to 0.5)),[3],0.482
GCATGCAA (double strand) [8-mer GCATGCAA],binding signal (PBM E-score (-0.5 to 0.5)),[4],0.496
GTCTTGCA (double strand) [8-mer GTCTTGCA],binding signal (PBM E-score (-0.5 to 0.5)),[4],0.494
GTGAAACA (double strand) [8-mer GTGAAACA],binding signal (PBM E-score (-0.5 to 0.5)),[2],0.484
GTGCAAGA (double strand) [8-mer GTGCAAGA],binding signal (PBM E-score (-0.5 to 0.5)),[4],0.494
GTTAAAAA (double strand) [8-mer GTTAAAAA],binding signal (PBM E-score (-0.5 to 0.5)),[7],0.494
GTTGAAAA (double strand) [8-mer GTTGAAAA],binding signal (PBM E-score (-0.5 to 0.5)),[7],0.495
GTTGCAAA (double strand) [8-mer GTTGCAAA],binding signal (PBM E-score (-0.5 to 0.5)),[7],0.493
TAGATACA (double strand) [8-mer TAGATACA],binding signal (PBM E-score (-0.5 to 0.5)),[3],0.491
TGAAACAA (double strand) [8-mer TGAAACAA],binding signal (PBM E-score (-0.5 to 0.5)),[2],0.485
TGATACAA (double strand) [8-mer TGATACAA],binding signal (PBM E-score (-0.5 to 0.5)),[3],0.489
TGTAACAA (double strand) [8-mer TGTAACAA],binding signal (PBM E-score (-0.5 to 0.5)),[3],0.483
same,binding signal (PBM E-score (-0.5 to 0.5)),[5],0.484
TGTAGAAA (double strand) [8-mer TGTAGAAA],binding signal (PBM E-score (-0.5 to 0.5)),[7],0.489
TGTATCAA (double strand) [8-mer TGTATCAA],binding signal (PBM E-score (-0.5 to 0.5)),[3],0.496
same,binding signal (PBM E-score (-0.5 to 0.5)),[5],0.49
TGTCGAAA (double strand) [8-mer TGTCGAAA],binding signal (PBM E-score (-0.5 to 0.5)),[7],0.495
TGTTAAAA (double strand) [8-mer TGTTAAAA],binding signal (PBM E-score (-0.5 to 0.5)),[7],0.496
TGTTACAA (double strand) [8-mer TGTTACAA],binding signal (PBM E-score (-0.5 to 0.5)),[7],0.488
same,binding signal (PBM E-score (-0.5 to 0.5)),[5],0.484
TGTTGAAA (double strand) [8-mer TGTTGAAA],binding signal (PBM E-score (-0.5 to 0.5)),[7],0.499
TGTTTCAA (double strand) [8-mer TGTTTCAA],binding signal (PBM E-score (-0.5 to 0.5)),[2],0.485
